Data: publication PMC7357788, “Overlapping functions and protein-protein interactions of LRR-extensins in Arabidopsis” (PLoS Genetics, 2020)
Entries after “also recorded” stand apart in the source; their conditions may differ. Ends that are not written are not given here.

Columns and labels:
LRX1^ΔE = assay: Co-IP of LRX1^ΔE-HA with RALF1-FLAG; assay type: binding, Arabidopsis thaliana; settings: Co-IP and immunoblotting, transient expression in N. benthamiana
Procedure: Here, we tested binding of RALF1 to LRX1.
For pulldown and Co-IP analysis of the different constructs indicated in the experiments DNA was infiltrated into Nicotiana benthamiana leaves, and after 48 hrs, the leaves were excised and ground in liquid nitrogen as described in [62]. Two hundred mg of tissue powder was re-suspended in 500 μL extraction buffer [200 mM Tris-HCl (pH 7.5), 150 mM NaCl, 1 mM PMSF, protease inhibitor and 0.5% Triton X-100]. The suspension was incubated on ice for 30 minutes and then centrifuged at 11,000 rpm for 20 minutes at 4°C. The supernatant (200 μL) was then incubated with 10 μL anti-HA (Thermo Scientific, 88837), or anti-FLAG magnetic beads overnight at 4°C on a rotating shaker. If RALF1 peptide was added, the peptide was diluted in such way that for every sample 1μL of peptide was added to the protein extracts. After incubation, the beads were washed five times with the wash buffer (extraction buffer containing 0.05% Triton X-100) and boiled in SDS-PAGE loading buffer for 15 minutes at 75°C. The immunoprecipitates were then run on an SDS-PAGE gel and transferred to nitrocellulose membrane to perform immunoblotting using the following antibodies: anti-FLAG M2 (Sigma-Aldrich, F3165), anti-GFP (Biolegend, 902601), anti-HA-HRP 3F10 (Roche, 12 013 819 001) and anti-mouse-HRP (Sigma Aldrich, A 4416). […]

LRX3, LRX4, and LRX5 = settings: vegetative tissues; ref [40],[41]; cited from earlier work
Source text: LRX proteins were recently identified as high-affinity binding sites for RALF peptides, with the binding spectrum differing among the LRXs. […] Whether and how the binding of RALFs and FER to LRXs influences the interaction of these proteins remains to be investigated. It is also unknown to what extent the different LRXs are functionally similar and whether they share FER as a common interaction ...

FLS2-BAK1 = settings: ref [17]; cited from earlier work
Source text: Different LRXs bind an overlapping but not identical array of RALF peptides, and the full binding spectrum of the different LRXs might be even broader. One reason for the distinct RALF binding spectrum of LRXs is based on their expression pattern. […] It can be speculated that the diverse affinities of RALFs and LRXs contribute to the specificities of the plant’s response to different RALF peptides that have distinct biological activities [[17],[18],[19],[20],[26 ...

FER^ECD [1] = assay: Co-IP of LRX^ΔE with FER^ECD-Citrine; assay type: binding, Arabidopsis thaliana; settings: proteins expressed in N. benthamiana
Source text: The root hair-localized LRX1 is so far the best characterized LRX protein and the lrx1 root hair mutant represents a convenient genetic system for analyses of LRX protein function. […] To this end, constructs encoding LRX1^ΔE-FLAG and the extracellular domain of FER fused to citrine (FER^ECD-Citrine) under the 35S promoter were expressed in tobacco for Co-IP experiments. […] The Y2H experiments were extended to other LRXs of vegetative tissues, namely the LRR domains of LRX2, LRX3, LRX4, and LRX5.
For pulldown and Co-IP analysis of the different constructs indicated in the experiments DNA was infiltrated into Nicotiana benthamiana leaves, and after 48 hrs, the leaves were excised and ground in liquid nitrogen as described in [62]. Two hundred mg of tissue powder was re-suspended in 500 μL extraction buffer [200 mM Tris-HCl (pH 7.5), 150 mM NaCl, 1 mM PMSF, protease inhibitor and 0.5% Triton X-100]. The suspension was incubated on ice for 30 minutes and then centrifuged at 11,000 rpm for 20 minutes at 4°C. The supernatant (200 μL) was then incubated with 10 μL anti-HA (Thermo Scientific, 88837), or anti-FLAG magnetic beads overnight at 4°C on a rotating shaker. If RALF1 peptide was added, the peptide was diluted in such way that for every sample 1μL of peptide was added to the protein extracts. […]

FER^ECD [2] = assay: Yeast-two-hybrid LRX LRR domain-FER^ECD; assay type: binding, Arabidopsis thaliana; settings: Y2H, yeast strain PJ69-4A, LRR domains, -Trp, Leu, His, Ade drop-out medium containing 5 mM 3-AT
Source text: The BD-LRX4 and AD-FER^ECD constructs for the Yeast-two-hybrid experiment were cloned as previously described, where NtermFER equals AD-FER^ECD and LRR4 equals BD-LRX4. For the BD-LRX1/2/3/5 constructs, the coding sequence of the LRR domain of the LRXs was amplified using primers (S3 Table) to introduce a BamHI and a XhoI site at the 5’ and 3’ end of the PCR fragments, respectively. These were cloned into pJET1.2 (Thermo Scientific) and correct clones were cut with BamHI and XhoI and ligated into pGBKT7 cut with BamHI and SalI. The AD-RALF1 construct was cloned into pJET1.2 (Thermo Scientific) by amplification of the coding sequence with the primers y2h_RALF1_F and y2h_RALF1_R. A correct clone was cut with EcoRI and XmaI and ligated into pGADT7 cut with EcoRI and XmaI.
Transformation of the yeast strain PJ69-4A [63] was done following standard procedures and quadruple drop-out medium lacking Leu, Trp, His, and Ade were used to screen for positive interactions after 4 days incubation at 30°C. Three different colonies containing both vectors were mixed and plated in triplicates on quadruple drop-out medium.
Supplementary file pgen.1008847.s001.pdf: S1 Fig Interaction of LRXs and FER in yeast-two-hybrid assays. […]

[3] = target: LRX4^ΔE-FLAG (Arabidopsis thaliana) (UniProt Q9LHF1); assay: BLI; BLITZ; LRX^ΔE-FLAG mixed with anti-FLAG M2 antibody and loaded onto a protein A biosensor; synthetic RALF1 peptide added at 0.2-200 μM; association 120 s, dissociation 120 s; sample diluent buffer (Pall FortéBio)
[4] = target: LRX3^ΔE-FLAG (Arabidopsis thaliana) (UniProt Q9T0K5); assay: as above
[5] = target: LRX1^ΔE-FLAG (Arabidopsis thaliana); assay: as above
[6] = target: LRX5^ΔE-FLAG (Arabidopsis thaliana) (UniProt Q9SN46); assay: as above
Chain of LRX5^ΔE-FLAG (Arabidopsis thaliana) (Q9SN46 32-857, stated change not applied): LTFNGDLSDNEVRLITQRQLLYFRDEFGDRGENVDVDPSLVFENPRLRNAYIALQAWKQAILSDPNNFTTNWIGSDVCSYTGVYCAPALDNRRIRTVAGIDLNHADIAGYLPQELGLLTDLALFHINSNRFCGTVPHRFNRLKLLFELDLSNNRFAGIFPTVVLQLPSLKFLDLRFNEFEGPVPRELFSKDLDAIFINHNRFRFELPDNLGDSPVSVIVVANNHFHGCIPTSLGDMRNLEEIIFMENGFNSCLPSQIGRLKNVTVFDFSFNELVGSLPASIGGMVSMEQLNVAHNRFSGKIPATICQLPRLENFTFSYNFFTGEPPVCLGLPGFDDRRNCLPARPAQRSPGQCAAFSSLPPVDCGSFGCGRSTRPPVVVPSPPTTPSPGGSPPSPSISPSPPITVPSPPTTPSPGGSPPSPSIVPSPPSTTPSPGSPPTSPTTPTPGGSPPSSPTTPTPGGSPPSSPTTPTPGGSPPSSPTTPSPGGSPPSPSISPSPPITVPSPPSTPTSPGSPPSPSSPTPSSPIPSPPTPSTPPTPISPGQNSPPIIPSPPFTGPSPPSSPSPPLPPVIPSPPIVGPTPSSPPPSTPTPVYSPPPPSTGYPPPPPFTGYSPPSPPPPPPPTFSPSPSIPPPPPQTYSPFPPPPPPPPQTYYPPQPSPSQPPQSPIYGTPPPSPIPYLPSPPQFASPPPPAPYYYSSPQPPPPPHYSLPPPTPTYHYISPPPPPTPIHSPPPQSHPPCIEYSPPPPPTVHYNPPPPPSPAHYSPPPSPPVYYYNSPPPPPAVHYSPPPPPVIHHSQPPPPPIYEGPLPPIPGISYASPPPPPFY

Chain of LRX4^ΔE-FLAG (Arabidopsis thaliana) (Q9LHF1 26-494, stated change not applied): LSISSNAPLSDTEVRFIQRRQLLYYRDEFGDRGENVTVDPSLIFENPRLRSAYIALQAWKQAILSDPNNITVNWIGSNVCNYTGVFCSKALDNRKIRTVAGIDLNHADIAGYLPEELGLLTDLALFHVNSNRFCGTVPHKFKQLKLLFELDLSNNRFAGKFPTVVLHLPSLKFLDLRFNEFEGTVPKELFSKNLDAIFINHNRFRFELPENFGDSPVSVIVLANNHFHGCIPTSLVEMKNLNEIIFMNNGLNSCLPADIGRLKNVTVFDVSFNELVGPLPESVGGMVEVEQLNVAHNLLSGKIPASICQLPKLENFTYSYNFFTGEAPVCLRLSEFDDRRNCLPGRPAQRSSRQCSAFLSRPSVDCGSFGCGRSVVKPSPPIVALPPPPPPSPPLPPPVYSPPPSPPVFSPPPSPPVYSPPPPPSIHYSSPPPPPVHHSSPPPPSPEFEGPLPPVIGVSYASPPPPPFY

RALF1-FLAG: FLAG-tagged RALF1 transiently expressed in N. benthamiana (ATTKYISYQSLKRNSVPCSRRGASYYNCQNGAQANPYSRGCSKIARCRS; ends and bridges not checked; also: FLAG tag, site not given here; UniProt Q9SRY3 72-120, looked up)
interaction with LRX1^ΔE (LRX1^ΔE): showed interaction of the two proteins

RALF23: RALF peptide reported to be bound by LRX3, LRX4, and LRX5 (ATRRYISYGALRRNTIPCSRRGASYYNCRRGAQANPYSRGCSAITRCRRS; UniProt Q9LUS7 89-138, looked up)
binding to LRX3, LRX4, and LRX5 (LRX3, LRX4, and LRX5): reported to bind | effect on scaffolding function of FER (FLS2-BAK1): inducing the dissociation of FLS2 from BAK1

B1: LRX3^ΔE: LRX3 lacking the extensin domain (protein)
chain: LSISSDGGVLSDNEVRHIQRRQLLEFAERSVKITVDPSLNFENPRLRNAYIALQAWKQAILSDPNNFTSNWIGSNVCNYTGVFCSPALDNRKIRTVAGIDLNHADIAGYLPEELGLLSDLALFHVNSNRFCGTVPHRFNRLKLLFELDLSNNRFAGKFPTVVLQLPSLKFLDLRFNEFEGTVPKELFSKDLDAIFINHNRFRFELPENFGDSPVSVIVLANNRFHGCVPSSLVEMKNLNEIIFMNNGLNSCLPSDIGRLKNVTVFDVSFNELVGPLPESVGEMVSVEQLNVAHNMLSGKIPASICQLPKLENFTYSYNFFTGEAPVCLRLPEFDDRRNCLPGRPAQRSPGQCKAFLSRPPVNCGSFSCGRSVSPRPPVVTPLPPPSLPSPPPPAPIFSTPPTLTSPPPPSPPPPVYSPPPPPPPPPPVYSPPPPPPPPPPPPVYSPPPPPPPPPPPPPVYSPPPPSPPPPPPPVYSPPPPPPPPPPPPVYSPPPPPVYSSPPPPPSPAPTPVYCTRPPPPPPHSPPPPQFSPPPPEPYYYSSPPPPHSSPPPHSPPPPHSPPPPIYPYLSPPPPPTPVSSPPPTPVYSPPPPPPCIEPPPPPPCIEYSPPPPPPVVHYSSPPPPPVYYSSPPPPPVYYSSPPPPPPVHYSSPPPPEVHYHSPPPSPVHYSSPPPPPSAPCEESPPPAPVVHHSPPPPMVHHSPPPPVIHQSPPPPSPEYEGPLPPVIGVSYASPPPPPFY
modifications: left off: double FLAG, C-terminal, kept
notes: LRX3 lacking the extensin domain
interaction with FER^ECD (FER^ECD [1]): revealed interaction of the two proteins; also recorded: show interaction with FER^ECD

B2: LRX2: LRR domain of LRX2 (BD-LRX2), gene At1g62440 (protein)
chain: MLLFPSTSLRLFFFLFLLFSSCFLQIRGDDDDDDISDDNIKVDPSLKFENPSLRQAYIALQSWKQAIFSDPFNFTANWNGSDVCSYNGIFCAPSPSSPKTRVVAGIDLNHADMAGYLPRELGLLTDLALFHLNSNRFCGEVPLTFKHMKLLFELDLSNNRFVGKFPNVVLSLPSLKFLDLRYNEFEGSIPSKLFDKELDAIFLNHNRFMFGIPENMGNSPVSALVLADNDLGGCIPGSIGLMGKTLNEIILSNDNLTGCLPPQIGNLKNVTVFDISFNRLSGPLPSSIGNMKSLEQLNVANNRFTGVIPSSICQLSNLENFTYSSNFFTGDAPRCVALLGDNVVVNGSMNCIDGKEDQRSSKECSSPASRSVDCSKFGCNNFFSPPPPSFKMSPTVRVLPPPPPSSKMSPTFRATPPPPSSKMSPSFRATPPPPSSKMSPSFRATPPPPSSKMSPSVKAYPPPPPPPEYEPSPPPPSSEMSPSVRAYPPPPPLSPPPPSPPPPYIYSSPPPPSPSPPPPYIYSSPPPVVNCPPTTQSPPPPKYEQTPSPREYYPSPSPPYYQYTSSPPPPTYYATQSPPPPPPPTYYAVQSPPPPPPVYYPPVTASPPPPPVYYTPVIQSPPPPPVYYSPVTQSPPPPPPVYYPPVTQSPPPSPVYYPPVTQSPPPPPVYYLPVTQSPPPPSPVYYPPVAKSPPPPSPVYYPPVTQSPPPPSTPVEYHPPASPNQSPPPEYQSPPPKGCNDSPSNDHHYQTPTPPSLPPPYYEDTPLPPIRGVSYASPPPPSIPYY
modifications: left off: Gal4 DNA-binding domain (from the vector pGBKT7), end not stated, kept
notes: LRR domain of LRX2 (BD-LRX2), gene At1g62440
interaction with FER^ECD (FER^ECD [2]): showed interaction with FER^ECD

B3: LRX1: LRR domain of LRX1 (BD-LRX1), gene At1g12040 (protein)
chain: MLFPPLRSLFLFTLLLSSVCFLQIKADHDDESDLGSDIKVDKRLKFENPKLRQAYIALQSWKKAIFSDPFNFTANWNGSDVCSYNGIYCAPSPSYPKTRVVAGIDLNHADMAGYLASELGLLSDLALFHINSNRFCGEVPLTFNRMKLLYELDLSNNRFVGKFPKVVLSLPSLKFLDLRYNEFEGKIPSKLFDRELDAIFLNHNRFRFGIPKNMGNSPVSALVLADNNLGGCIPGSIGQMGKTLNELILSNDNLTGCLPPQIGNLKKVTVFDITSNRLQGPLPSSVGNMKSLEELHVANNAFTGVIPPSICQLSNLENFTYSSNYFSGRPPICAASLLADIVVNGTMNCITGLARQRSDKQCSSLLARPVDCSKFGCYNIFSPPPPTFKMSPEVRTLPPPIYVYSSPPPPPSSKMSPTVRAYSPPPPPSSKMSPSVRAYSPPPPPYSKMSPSVRAYPPPPPPSPSPPPPYVYSSPPPPYVYSSPPPPPYVYSSPPPPPYVYSSPPPPYVYSSPPPPYVYSSPPPPPPSPPPPCPESSPPPPVVYYAPVTQSPPPPSPVYYPPVTQSPPPPSPVYYPPVTNSPPPPSPVYYPPVTYSPPPPSPVYYPQVTPSPPPPSPLYYPPVTPSPPPPSPVYYPPVTPSPPPPSPVYYPPVTPSPPPPSPVYYPSETQSPPPPTEYYYSPSQSPPPTKACKEGHPPQATPSYEPPPEYSYSSSPPPPSPTSYFPPMPSVSYDASPPPPPSYY
modifications: left off: Gal4 DNA-binding domain (from the vector pGBKT7), end not stated, kept
notes: LRR domain of LRX1 (BD-LRX1), gene At1g12040
interaction with FER^ECD (FER^ECD [1]; listed as LRX1^ΔE): show interaction with FER^ECD | interaction with FER^ECD (FER^ECD [2]): confirmed in a yeast-two-hybrid (Y2H) experiment

B4: synthetic RALF1 peptide (peptide)
peptide: ATTKYISYQSLKRNSVPCSRRGASYYNCQNGAQANPYSRGCSKIARCRS
Kd [3]: 5.5 nM | Kd [4]: 11 µM | Kd [5]: 4.5 nM | Kd [6]: 3.5 nM
